# According to PMC1140370:
# Like-named read-outs stand apart in the source and are kept apart here.
# B1: Bub-T20 (mixed)
# DNA 1: GTTTTCCCAGTCACGACGTTGTAAAACGACTTTTTTTTTTTTTTTTTTTTTACCGAGCTCGAATTCGTAATCATGGTCAT
# DNA 2: ATGACCATGATTACGAATTCGAGCTCGGTATTTTTTTTTTTTTTTTTTTTGTCGTTTTACAACGTCGTGACTGGGAAAAC
# B2: Bub-T40 (mixed)
# DNA 1: GTTTTCCCAGTCACGACGTTGTAAAACGACTTTTTTTTTTTTTTTTTTTTTTTTTTTTTTTTTTTTTTTTTACCGAGCTCGAATTCGTAATCATGGTCAT
# DNA 2: ATGACCATGATTACGAATTCGAGCTCGGTATTTTTTTTTTTTTTTTTTTTTTTTTTTTTTTTTTTTTTTTGTCGTTTTACAACGTCGTGACTGGGAAAAC
# B3: 3' dT50-extension (mixed)
# DNA 1: GTTTTCCCAGTCACGACGTTGTAAAACGACGGCCAGTTTTTTTTTTTTTTTTTTTTTTTTTTTTTTTTTTTTTTTTTTTTTTTTTTT
# DNA 2: ACTGGCCGTCGTTTTACAACGTCGTGACTGGGAAAAC
# B4: Bub-T30 (mixed)
# DNA 1: GTTTTCCCAGTCACGACGTTGTAAAACGACTTTTTTTTTTTTTTTTTTTTTTTTTTTTTTTACCGAGCTCGAATTCGTAATCATGGTCAT
# DNA 2: ATGACCATGATTACGAATTCGAGCTCGGTATTTTTTTTTTTTTTTTTTTTTTTTTTTTTTGTCGTTTTACAACGTCGTGACTGGGAAAAC
# B5: A-fork[3'] (mixed)
# DNA 1: CGCATCGCCCACCTGCCTCTGGTGGAGGAGCTGCGTGCACTGAGGCAGTTGCACCTGAACCAGCTGATCCGTGCCGCTGGCGTGGTGGCCGCCTGCGCCGGAGTC
# DNA 2: GGGTGAACCTGCAGGTGGGCAAAGATGTCCTAGCAAGGCACTGGTAGAATGGTGCAACTGCCTCAGTGCACGCAGCTCCTCCACCAGAGGCAGGTGGGCGATGCG
# DNA 3: GACTCCGGCGCAGGCGGCCACCACGCCAGCGGCACGGATCAGCTGGTTCA
# B6: A-fork[5'] (mixed)
# DNA 1: B5 DNA 1
# DNA 2: B5 DNA 2
# DNA 3: ATTCTACCAGTGCCTTGCTAGGACATCTTTGCCCACCTGCAGGTTCACCC
# B7: Bub-T50 (mixed)
# DNA 1: GTTTTCCCAGTCACGACGTTGTAAAACGACTTTTTTTTTTTTTTTTTTTTTTTTTTTTTTTTTTTTTTTTTTTTTTTTTTTACCGAGCTCGAATTCGTAATCATGGTCAT
# DNA 2: ATGACCATGATTACGAATTCGAGCTCGGTATTTTTTTTTTTTTTTTTTTTTTTTTTTTTTTTTTTTTTTTTTTTTTTTTTGTCGTTTTACAACGTCGTGACTGGGAAAAC
# Tests used:
# Assay in all cases: EMSA
# Mcm4/6/7 complex [1] = target: T1, Mcm4/6/7 complex (mouse, UniProt P49717;Q61881;P97311 1-862;1-719;1-821)
# Mcm4/6/7 complex [2] = target: T1, Mcm4/6/7 complex; remark: listed apart in the source
# Mcm4/6/7 complex [3] = target: T1, Mcm4/6/7 complex; remark: listed apart in the source
# Mcm4/6/7 complex [4] = target: T1, Mcm4/6/7 complex; remark: listed apart in the source
# Mcm4/6/7 complex [5] = target: T1, Mcm4/6/7 complex; remark: listed apart in the source
# T1 sequence (P49717 whole entry, chain 1 of 3): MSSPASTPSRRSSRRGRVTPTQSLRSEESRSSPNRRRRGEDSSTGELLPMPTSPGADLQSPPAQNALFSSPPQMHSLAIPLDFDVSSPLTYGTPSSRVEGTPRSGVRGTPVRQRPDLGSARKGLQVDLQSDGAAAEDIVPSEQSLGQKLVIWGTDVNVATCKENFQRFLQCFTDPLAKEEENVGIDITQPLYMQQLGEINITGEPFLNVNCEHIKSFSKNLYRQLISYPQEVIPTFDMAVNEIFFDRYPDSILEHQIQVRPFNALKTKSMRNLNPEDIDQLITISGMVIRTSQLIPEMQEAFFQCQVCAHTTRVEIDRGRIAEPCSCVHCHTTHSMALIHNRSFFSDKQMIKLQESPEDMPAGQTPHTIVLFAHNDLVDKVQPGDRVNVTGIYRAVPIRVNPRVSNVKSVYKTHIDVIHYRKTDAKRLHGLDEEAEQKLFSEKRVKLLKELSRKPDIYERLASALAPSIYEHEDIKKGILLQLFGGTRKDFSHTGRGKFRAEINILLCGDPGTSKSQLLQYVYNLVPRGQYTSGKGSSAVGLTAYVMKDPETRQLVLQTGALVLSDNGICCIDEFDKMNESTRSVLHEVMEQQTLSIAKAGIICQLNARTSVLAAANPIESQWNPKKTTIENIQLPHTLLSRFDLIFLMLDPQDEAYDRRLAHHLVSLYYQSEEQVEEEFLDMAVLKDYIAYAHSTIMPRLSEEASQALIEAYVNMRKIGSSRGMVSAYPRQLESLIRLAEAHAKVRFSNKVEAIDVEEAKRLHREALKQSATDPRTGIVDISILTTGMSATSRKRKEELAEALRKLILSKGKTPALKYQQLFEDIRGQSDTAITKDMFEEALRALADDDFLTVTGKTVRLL
# T1 sequence (Q61881 whole entry, chain 2 of 3): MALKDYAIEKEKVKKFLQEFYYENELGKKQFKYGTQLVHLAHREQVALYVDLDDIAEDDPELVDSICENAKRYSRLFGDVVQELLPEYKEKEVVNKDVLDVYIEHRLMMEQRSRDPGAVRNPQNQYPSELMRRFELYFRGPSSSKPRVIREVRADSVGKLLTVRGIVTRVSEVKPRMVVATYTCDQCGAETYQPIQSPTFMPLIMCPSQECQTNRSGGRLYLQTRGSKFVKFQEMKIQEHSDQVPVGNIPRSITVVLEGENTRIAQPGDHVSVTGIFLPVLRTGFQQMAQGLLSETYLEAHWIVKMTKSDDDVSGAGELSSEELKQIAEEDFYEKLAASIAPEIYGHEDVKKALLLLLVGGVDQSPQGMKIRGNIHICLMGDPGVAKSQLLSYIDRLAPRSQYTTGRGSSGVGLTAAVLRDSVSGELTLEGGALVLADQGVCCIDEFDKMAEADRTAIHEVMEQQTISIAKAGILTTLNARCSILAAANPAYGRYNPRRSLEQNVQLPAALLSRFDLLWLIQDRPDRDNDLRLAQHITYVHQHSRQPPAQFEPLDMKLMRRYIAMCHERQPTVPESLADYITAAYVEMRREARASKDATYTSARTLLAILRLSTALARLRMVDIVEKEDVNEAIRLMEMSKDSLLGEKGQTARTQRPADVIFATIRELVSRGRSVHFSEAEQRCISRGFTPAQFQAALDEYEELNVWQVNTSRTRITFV
# T1 sequence (P97311 whole entry, chain 3 of 3): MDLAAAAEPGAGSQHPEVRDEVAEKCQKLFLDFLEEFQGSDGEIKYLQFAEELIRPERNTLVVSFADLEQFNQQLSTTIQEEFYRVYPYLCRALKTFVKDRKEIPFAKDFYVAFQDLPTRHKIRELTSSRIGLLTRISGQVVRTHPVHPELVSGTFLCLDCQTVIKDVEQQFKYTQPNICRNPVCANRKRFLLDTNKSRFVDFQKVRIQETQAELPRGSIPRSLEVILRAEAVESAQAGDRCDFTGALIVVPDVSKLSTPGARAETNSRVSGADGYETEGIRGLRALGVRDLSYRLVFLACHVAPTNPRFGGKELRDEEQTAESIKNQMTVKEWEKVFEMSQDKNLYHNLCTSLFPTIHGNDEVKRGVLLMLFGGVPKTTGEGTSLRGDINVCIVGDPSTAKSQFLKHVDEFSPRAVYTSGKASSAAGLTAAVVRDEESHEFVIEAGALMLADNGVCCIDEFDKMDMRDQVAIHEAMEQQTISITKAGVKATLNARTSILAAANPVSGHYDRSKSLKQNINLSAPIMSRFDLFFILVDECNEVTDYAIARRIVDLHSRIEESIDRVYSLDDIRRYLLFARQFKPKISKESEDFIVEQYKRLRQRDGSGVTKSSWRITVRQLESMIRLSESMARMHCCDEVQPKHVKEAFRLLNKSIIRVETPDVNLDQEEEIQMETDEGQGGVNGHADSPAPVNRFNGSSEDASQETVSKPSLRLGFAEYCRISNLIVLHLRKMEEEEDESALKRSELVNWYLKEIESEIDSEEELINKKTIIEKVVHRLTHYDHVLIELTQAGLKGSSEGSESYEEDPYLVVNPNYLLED
binder,measurement,setting,value
B1,binding result,Mcm4/6/7 complex [1],binds
B2,binding result,Mcm4/6/7 complex [2],binds
B3,binding result,Mcm4/6/7 complex [3],binds
B4,binding result,Mcm4/6/7 complex [4],binds
B5,binding result,Mcm4/6/7 complex [5],binds
B6,binding result,Mcm4/6/7 complex [5],binds
B7,binding result,Mcm4/6/7 complex [2],binds
